For three molecules, EC50 results are on record in patent publication US20180066066A1 (University of Texas, published 2018).

B1: HER3-hMab-A13 (antibody, V domains shown)
VH: QVQLVESGGGLVQPGGSLRLSCSASGFSFSSSYWICWVRQAPGKGLEYIGYIWSGNGATYYASWAKGRFTISRDNSKNTVYLQMNSLRAEDTAVYFCARNYDASGYGIFHLWGPGTLVTVSS
VL: DIQMTQTPSSLSASVGDRVTINCQASQSIVSSYLSWYQQKPGKPPKLLIYSASKLASGVPSRFSGSGSGTDFTLTISSLQPEDFATYYCLYGVDSSNIDNAFGGGTKVEIK
B2: HER3-hMab-A16 (antibody, V domains shown)
VH: QVQLVESGGGLVQPGGSLRLSCSASGFSFSSSYWICWVRQAPGKGLELIGYIWSGNGATYYASWAKGRFTISRDTSKNTVYLQMNSLRAEDTAVYFCARNYDASGYGIFHLWGPGTLVTVSS
VL: AVQMTQTPSSLSASVGDRVTINCQASQSIVSSYLSWYQQKPGKPPKLLIYSASKLASGVPSRFSGSGSGTDFTLTISSLQPEDFATYYCLYGVDSSNIDNAFGGGTKVEIK
B3: HER3-hMab-A15 (antibody, V domains shown)
VH: QVQLVESGGGLVQPGGSLRLSCSASGFSFSSSYWICWVRQAPGKGLEYIGYIWSGNGATYYASWAKGRFTISRDNSKNTVYLQMNSLRAEDTAVYFCARNYDASGYGIFHLWGPGTLVTVSS
VL: AVQMTQTPSSLSASVGDRVTINCQASQSIVSSYLSWYQQKPGKPPKLLIYSASKLASGVPSRFSGSGSGTDFTLTISSLQPEDFATYYCLYGVDSSNIDNAFGGGTKVEIK

In this assay the target is T1, human HER3/ErbB3 extracellular domain (human, UniProt P21860 20-643).
T1 construct: extracellular domain; the range 1-643 of M34309 is printed only for the immunogen; also called Human HER3 ECD; recombinant human HER3
T1 sequence (P21860 20-643): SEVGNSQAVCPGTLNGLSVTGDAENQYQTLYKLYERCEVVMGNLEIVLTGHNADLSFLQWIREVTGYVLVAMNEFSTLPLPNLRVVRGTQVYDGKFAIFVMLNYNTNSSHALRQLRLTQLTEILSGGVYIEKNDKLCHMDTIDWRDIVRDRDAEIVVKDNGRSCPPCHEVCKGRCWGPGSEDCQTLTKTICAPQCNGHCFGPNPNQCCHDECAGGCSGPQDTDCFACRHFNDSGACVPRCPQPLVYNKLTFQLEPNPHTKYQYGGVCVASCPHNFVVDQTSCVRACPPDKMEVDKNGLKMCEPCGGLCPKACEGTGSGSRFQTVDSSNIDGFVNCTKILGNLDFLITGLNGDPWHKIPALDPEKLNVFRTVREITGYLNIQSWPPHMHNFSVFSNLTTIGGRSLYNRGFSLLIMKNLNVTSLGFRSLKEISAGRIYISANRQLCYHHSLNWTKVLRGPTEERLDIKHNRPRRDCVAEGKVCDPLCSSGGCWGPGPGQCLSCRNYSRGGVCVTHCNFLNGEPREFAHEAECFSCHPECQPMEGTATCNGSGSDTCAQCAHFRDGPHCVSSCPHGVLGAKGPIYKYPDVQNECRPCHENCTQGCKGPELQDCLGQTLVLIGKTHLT
The assay is described as follows: ELISA on human HER3 ECD.
B1: the concentration for a half-maximal effect (EC50) (usually the midpoint of the concentration-response curve) came to 2.5 ng/mL.

In turn, B2 showed an EC50 of 2.3 ng/mL.

B3: the midpoint of the response, the EC50, lay at 2.4 ng/mL.
